Data as given in article PMC12723162, “Alphaherpesvirus pUL21 homologs use non-canonical sequences to compete with cellular adaptors for protein phosphatase 1 binding” (The Journal of Biological Chemistry, 2025).
Like-named read-outs stand apart in the source and are kept apart here.

Legend:
Format in all cases: binding
[1] = target: T1, PP1γ catalytic domain (7–300), C-terminally His6-tagged (Mus musculus, UniProt P63087); test: Isothermal titration calorimetry (ITC); design: key to KD / ∆H / ∆G / -T∆S / N (sites): –: no binding detected
T1 construct: mouse PP1γ catalytic domain (residues 7–300)-H6; made in house; host or cells: E. coli T7 Express lysY/Iq
From the text: (§1) Bacterial expression plasmids encoding the mouse PP1γ catalytic domain (residues 7–300)-H6 and pUL21-H6, and mammalian expression vectors encoding pUL21(FV242AA)-GFP, pORF38-GFP and pORF38(FV255AA)-GFP, were described previously ([23]). We note that the mouse and human PP1γ catalytic domains share 100% amino acid identity. pORF38-NLT-H6 was generated by sub-cloning residues 1 to 263 of ORF38 into the vector pOPTnH ([52]). pUL21-RVxF-H6 was generated by inserting the mutations A237V and V239F into pUL21-H6 by QuikChange site-directed mutagenesis. Human PP1α was cloned from HeLa cell cDNA into a vector derived from pF5K (Promega) with an N-terminal Myc epitope tag via restriction-based cloning, and point mutations were introduced into Myc-PP1α by QuikChange mutagenesis. A plasmid encoding pUL21-GFP was generated by sub-cloning a codon-optimized synthetic UL21 gene (GeneArt) into pEGFP-N1 (Clontech), yielding an identical pUL21-GFP amino acid sequence as used in ([23]). pUL21-ΔL, -ΔR and -ΔLR were generated from this vector via inverse PCR, and point mutations were introduced via QuikChange mutagenesis.
Proteins were expressed using E. coli T7 Express lysY/I^q cells (New England Biolabs) grown in 2 × TY medium at 37 °C to OD600 0.8 to 1.2 before cooling to 22 °C and induction of protein expression using 0.4 mM IPTG. Cells were harvested at 16 to 20 h post-induction and pellets stored at −70 °C until required. Cells were resuspended in chilled lysis buffer (20 mM Tris pH 7.5, 20 mM imidazole, 500 mM NaCl, 1.4 mM β-mercaptoethanol 0.5 mM MgCl2 and 0.05% TWEEN-20 [plus 1 mM MnCl2 for PP1]) that was supplemented with 200 μl EDTA-free protease inhibitor cocktail (Merck) and 400 U bovine DNase I (Merck). Cells were lysed using a TS series cell disruptor (Constant Systems) at 24 kpsi and lysates were clarified (40,000×g, 30 min, 4 °C) before incubation with Ni-NTA agarose (Qiagen) for 1 h at 4 °C. The resin was washed with ≥20 column volumes of wash buffer (20 mM Tris, 20 mM imidazole and 500 mM NaCl [plus 1 mM MnCl2 for PP1]) at pH 7.5 (PP1γ and pORF38-NLT) or pH 8.5 (pUL21 and pUL21-RVxF). Protein was eluted using wash buffer supplemented with additional imidazole (final concentration 250 mM) and proteins were subjected to size-exclusions chromatography using HiLoad 16/600 Superdex 75 (PP1) or Superdex 200 (other) columns equilibrated in 20 mM Tris pH 8.5, 500 mM NaCl, 1 mM DTT (for pUL21 and pUL21-RVxF) or 50 mM HEPES pH 8.0, 500 mM NaCl, 0.5 mM TCEP (for PP1 and pORF38-NLT). Fractions were analysed by SDS-PAGE and those containing the desired protein were pooled, concentrated using centrifugal concentrators (Millipore) and stored at 4 °C (short-term) or snap-frozen in liquid nitrogen for long-term storage at −70 °C.
ITC experiments were performed using a MicroCal PEAQ-ITC automated calorimeter (Malvern Panalytical). The solvent (ITC buffer) was 50 mM HEPES pH 8.0, 500 mM NaCl, 0.5 mM TCEP. Lyophilized peptides were dissolved into ITC buffer and their concentration was estimated from dry mass. Proteins were diluted in ITC buffer, and their concentration was estimated from the theoretical extinction coefficient at 280 nm ([53]). […] Data were analyzed using MicroCal PEAQ-ITC analysis software (Malvern Panalytical) and fitted using a one-site binding model.
Table S1. Isothermal titration calorimetry (ITC) of PP1 with TROPPO-containing peptides and proteins. Data for independent experiments are shown. For all, the cell contained C-terminally His6-tagged mouse PP1γ (7–300). –, no binding detected.

[2] = target: T2, PP1γ catalytic domain : GADD34 peptide pre-formed complex (Mus musculus, UniProt P63087); test: Competition fluorescence anisotropy, displacement of FITC-GADD34 peptide from PP1γ (HEPES pH 8.0); details: 2 nM fluorescent GADD34 peptide + 250 nM PP1γ
T2 construct: mouse PP1γ catalytic domain (residues 7–300)-H6; His6 (C); made in house; host or cells: E. coli T7 Express lysY/Iq (PP1γ); tracer peptide synthesised by GenScript
From the text: as §1
Peptides were commercially synthesised to >95% purity (GenScript) as follows: GADD34 RVxF+ϕϕ[xF] […]
(§2) Proteins were expressed using E. coli T7 Express lysY/I^q cells (New England Biolabs) grown in 2 × TY medium at 37 °C to OD600 0.8 to 1.2 before cooling to 22 °C and induction of protein expression using 0.4 mM IPTG. […] Fractions were analysed by SDS-PAGE and those containing the desired protein were pooled, concentrated using centrifugal concentrators (Millipore) and stored at 4 °C (short-term) or snap-frozen in liquid nitrogen for long-term storage at −70 °C.
Fluorescence anisotropy was measured using a SpectraMax i3 microplate reader (Molecular Devices) with wavelengths 485 ± 20 nm (excitation) and 535 ± 25 nm (emission). Samples (100 μl per well) were dispensed into low-bind black half-area 96-well microtitre plates (Corning) and fluorescence anisotropy was recorded at 27 °C. […]

[3] = target: T2, PP1γ catalytic domain : GADD34 peptide pre-formed complex; test: Competition fluorescence anisotropy in Tris pH 8.5 buffer; details: 2 nM fluorescent GADD34 peptide + 250 nM PP1γ
Procedure: Similar competition fluorescence anisotropy experiments with purified full-length pUL21 (Fig. 5E) were performed in a buffer optimized to enhance solubility of the protein (Tris pH 8.5 in place of HEPES pH 8). […] To test whether optimization of the TROPPO sequence to better match a canonical RVxF motif could enhance binding, we generated, expressed and purified a pUL21-H6 mutant where residues A237 and V239 had been substituted for valine and phenylalanine, respectively (pUL21-RVxF, Fig. 5E).
as §1, with “A plasmid encoding pUL21-GFP was generated by sub-cloning a codon-optimized synthetic UL21 gene (GeneArt) into pEGFP-N1 (Clontech), yielding an identical pUL21-GFP amino acid sequence as used in ([23]). pUL21-ΔL, -ΔR and -ΔLR were generated from this vector via inverse PCR, and point mutations were introduced via QuikChange mutagenesis.” left out
as §2
Fluorescence anisotropy was measured using a SpectraMax i3 microplate reader (Molecular Devices) with wavelengths 485 ± 20 nm (excitation) and 535 ± 25 nm (emission). […]

[4] = TROPPO peptide, independent experiment 3, syringe/cell µM: pORF38 500/16.0
[5] = TROPPO peptides, independent experiment 1, syringe/cell µM: pUL21 1000/58.8, pORF38 1000/79.6
[6] = TROPPO peptides, independent experiment 2, syringe/cell µM: pUL21 1000/54.5, pORF38 500/17.0
[7] = independent experiment 1, 240 µM titrant, 17.0 µM PP1, HEPES pH 8.0, 25 °C
[8] = independent experiment 2, 147 µM titrant, 10.0 µM PP1, HEPES pH 8.0, 25 °C
[9] = independent experiment 3, 153 µM titrant, 9.5 µM PP1, HEPES pH 8.0, 25 °C

T2 sequence (P63087 7-300, one chain of several): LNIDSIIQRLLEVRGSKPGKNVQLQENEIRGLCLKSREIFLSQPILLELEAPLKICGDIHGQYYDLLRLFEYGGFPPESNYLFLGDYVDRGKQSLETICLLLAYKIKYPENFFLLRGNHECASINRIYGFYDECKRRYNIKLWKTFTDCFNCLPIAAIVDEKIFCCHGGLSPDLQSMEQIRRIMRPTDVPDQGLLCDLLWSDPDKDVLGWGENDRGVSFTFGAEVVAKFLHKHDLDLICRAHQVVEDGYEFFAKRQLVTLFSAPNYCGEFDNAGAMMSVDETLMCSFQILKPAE
T1 sequence (P63087 7-300): as the sequence (P63087 7-300, one chain of several) above

Molecule: KSDHITLSNFVQIRTIPR [pORF38 TROPPO, pORF38 TROPPO peptide (residues 246–263)]
- ITC heats of TROPPO peptides against PP1 catalytic domain ([1]; 500–1000 μM peptide titrated, 50 mM HEPES pH 8.0, 500 mM NaCl, 0.5 mM TCEP, 25 °C): did not evolve heats above background levels
- -T∆S [1, 4]: –
- N (sites) [1, 4]: –
- ∆G [1, 4]: –
- ∆H [1, 4]: –
- KD ([1]; TROPPO peptide, independent experiment 3, syringe/cell µM: pORF38 500/16.0, HEPES pH 8.0, 25 °C): –
- -T∆S [1, 5]: –
- N (sites) [1, 5]: –
- ∆G [1, 5]: –
- ∆H [1, 5]: –
- KD ([1]; TROPPO peptides, independent experiment 1, syringe/cell µM: pUL21 1000/58.8, pORF38 1000/79.6, HEPES pH 8.0, 25 °C): –
- -T∆S [1, 6]: –
- N (sites) [1, 6]: –
- ∆G [1, 6]: –
- ∆H [1, 6]: –
- KD ([1]; TROPPO peptides, independent experiment 2, syringe/cell µM: pUL21 1000/54.5, pORF38 500/17.0, HEPES pH 8.0, 25 °C): –
- Displacement of GADD34 peptide from PP1 by TROPPO peptides ([2]; competitor at over 1000-fold molar excess, HEPES pH 8.0, 500 mM NaCl, 0.05% TWEEN-20, 27 °C): Neither TROPPO-containing peptide was able to displace the GADD34 peptide

B1: Full-length pUL21: purified full-length HSV-1 pUL21 (protein)
chain: MELSYATTMHYRDVVFYVTTDRNRAYFVCGGCVYSVGRPCASQPGEIAKFGLVVRGTGPDDRVVANYVRSELRQRGLQDVRPIGEDEVFLDSVCLLNPNVSSELDVINTNDVEVLDECLAEYCTSLRTSPGVLISGLRVRAQDRIIELFEHPTIVNVSSHFVYTPSPYVFALAQAHLPRLPSSLEALVSGLFDGIPAPRQPLDAHNPRTDVVITGRRAPRPIAGSGAGSGGAGAKRATVSEFVQVKHIDRVGPAGVSPAPPPNNTDSSSLVPGAQDSAPPGPTLRELWWVFYAADRALEEPRADSGLTREEVRAVRGFREQAWKLFGSAGAPRAFIGAALGLSPLQKLAVYYYIIHRERRLSPFPALVRLVGRYTQRHGLYVPRPDDPVLADAINGLFRDALAAGTTAEQLLMFDLLPPKDVPVGSDVQADSTALLRFIESQRLAVPGGVISPEHVAYLGAFLSVLYAGRGRMSAATHTARLTGVTSLVLAVGDVDRLSAFDRGAAGAASRTRAAGYLDVLLTVRLARSQHGQSV
modifications: left off: His6, C-terminal, kept
notes: purified full-length HSV-1 pUL21
- Competition with GADD34 peptide for PP1 binding [3]: unable to out-compete GADD34 for binding to PP1
- Competition with GADD34 peptide for PP1 binding ([3]; listed as wild-type pUL21): cannot displace a GADD34 RVxF- and ϕϕ[xF]-containing peptide from PP1

B2: pORF38-NLT: VZV pORF38 N-terminal domain plus Linker region up to the end of the TROPPO motif (residues 1 to 263) (protein)
chain: MEFPYHSTVSYNGVTFYFNERATRAYFICGGCLISIPRKHGGEIAKFGHVVRGVGPGDRSVASYVRSELNRTGKTWAVSSNNNCVFLDRVALLAAGSGAVDRDLCGTFDVEVEDPTLADYLVSLPVTHLTLVAGVDVTRENKLKLFPTPTAINTTNGFMYVPNEASFSLVYMRMLELPESLQELVSGLFDGTPEIRDALNGSNDDEKTSIIVSRRAADVVTEDVKADDVPISGEPYSEKQPRRRKKSDHITLSNFVQIRTIPR
modifications: left off: His6, C-terminal, kept
- ΔH, mean ([1]; 25 °C, HEPES pH 8.0, average of three independent experiments): -13.3 kcal/mol
- Kd ([1]; independent experiment 1, 240 µM titrant in syringe, 17.0 µM PP1 in cell, HEPES pH 8.0, 25 °C, read-out: KD): 719 nM
- -T∆S [1, 7]: 4.76 kcal/mol
- N (sites) [1, 7]: 1.21 sites
- ∆G [1, 7]: -8.38 kcal/mol
- ∆H [1, 7]: -13.1 kcal/mol
- Kd ([1]; independent experiment 2, 147 µM titrant in syringe, 10.0 µM PP1 in cell, HEPES pH 8.0, 25 °C, read-out: KD): 540 nM
- -T∆S [1, 8]: 4.72 kcal/mol
- N (sites) [1, 8]: 0.965 sites
- ∆G [1, 8]: -8.55 kcal/mol
- ∆H [1, 8]: -13.3 kcal/mol
- Kd ([1]; independent experiment 3, 153 µM titrant in syringe, 9.5 µM PP1 in cell, HEPES pH 8.0, 25 °C, read-out: KD): 231 nM
- -T∆S [1, 9]: 4.5 kcal/mol
- N (sites) [1, 9]: 0.838 sites
- ∆G [1, 9]: -9.06 kcal/mol
- ∆H [1, 9]: -13.6 kcal/mol
- PP1 binding compared with GADD34 peptide ([1]; pORF38-NLT ITC versus GADD34 peptide by fluorescence anisotropy or ITC): substantially weaker binding than observed for the GADD34 peptide
- Kd ([1]; pORF38-NLT titrated into PP1, HEPES pH 8.0, 500 mM NaCl, 0.5 mM TCEP, 25 °C, one-site model, mean ± SEM, three independent experiments, listed as pOPF38-NLT, read-out: Affinity (KD), mean): ~500 nM
- Competition with RVxF peptide for PP1 binding ([2]; increasing concentrations of pORF38-NLT, HEPES pH 8.0): competes with the RVxF peptide for PP1 binding
